Target: T1, MBP-Ync13-6xHis (Schizosaccharomyces pombe, UniProt O13683 1-1237)
T1 construct: Ync13, Munc13/UNC-13 family protein of Schizosaccharomyces pombe; FL cDNA in pET21a-MBP; MBP-TEV-GGSGGS precedes Ync13; also called MBP-Ync13-6His; not shown: MBP, N-terminal, kept; His6, C-terminal, kept
T1 sequence (looked up): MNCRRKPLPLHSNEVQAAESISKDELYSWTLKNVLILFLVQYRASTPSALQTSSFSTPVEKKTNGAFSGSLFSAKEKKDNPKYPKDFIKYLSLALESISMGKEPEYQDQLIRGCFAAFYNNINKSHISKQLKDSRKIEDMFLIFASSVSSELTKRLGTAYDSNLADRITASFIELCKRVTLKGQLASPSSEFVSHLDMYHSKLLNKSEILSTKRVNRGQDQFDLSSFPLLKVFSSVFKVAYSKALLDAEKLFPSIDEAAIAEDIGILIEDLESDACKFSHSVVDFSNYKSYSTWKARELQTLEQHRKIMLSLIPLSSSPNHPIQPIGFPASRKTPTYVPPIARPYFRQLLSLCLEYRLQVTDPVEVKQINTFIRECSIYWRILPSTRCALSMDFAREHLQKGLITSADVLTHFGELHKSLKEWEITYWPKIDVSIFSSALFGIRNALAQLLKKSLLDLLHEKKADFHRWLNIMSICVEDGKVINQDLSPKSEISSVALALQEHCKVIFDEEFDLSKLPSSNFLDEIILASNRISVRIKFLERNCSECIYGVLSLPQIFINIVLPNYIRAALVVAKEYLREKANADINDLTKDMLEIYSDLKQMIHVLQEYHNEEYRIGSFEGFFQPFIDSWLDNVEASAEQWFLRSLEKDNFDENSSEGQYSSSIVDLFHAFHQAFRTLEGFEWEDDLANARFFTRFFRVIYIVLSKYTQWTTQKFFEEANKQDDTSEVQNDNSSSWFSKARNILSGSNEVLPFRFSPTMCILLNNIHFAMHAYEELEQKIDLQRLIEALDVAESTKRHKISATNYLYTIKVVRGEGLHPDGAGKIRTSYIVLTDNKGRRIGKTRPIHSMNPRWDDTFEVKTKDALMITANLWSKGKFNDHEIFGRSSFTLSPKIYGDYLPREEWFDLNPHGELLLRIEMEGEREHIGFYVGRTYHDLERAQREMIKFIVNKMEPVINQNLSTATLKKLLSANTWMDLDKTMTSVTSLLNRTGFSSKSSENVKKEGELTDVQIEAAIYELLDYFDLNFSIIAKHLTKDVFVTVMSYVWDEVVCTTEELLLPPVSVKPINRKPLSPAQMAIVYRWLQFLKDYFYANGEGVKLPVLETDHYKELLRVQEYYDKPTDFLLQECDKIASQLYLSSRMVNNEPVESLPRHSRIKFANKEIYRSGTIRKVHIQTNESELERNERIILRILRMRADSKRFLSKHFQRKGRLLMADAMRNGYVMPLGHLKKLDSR
Test: supernatant depletion assay; Rga7-6xHis at 4 µM titrated with MBP-Ync13-6xHis immobilized on Cobalt beads; beads pelleted at 16,000g, supernatant on SDS-PAGE, Coomassie, bound fraction fitted
Settings: both partners purified

B1: Rga7-6xHis (natural protein, Schizosaccharomyces pombe, UniProt O94466 1-695, looked up)
chain: MLSAPSSSTTPASPPTSPPNTTSSDDFAVLKEPKVEAILNSELGLAILNDRIKDYLLTCKELAGFFKKRSILEEESGKNLQKLAKSYLETFQSKHHSPQSFSASVITSMEIHEQLANHSLTLQKTLSAFSDQVIEFHKNAERKRKSIKEYAKKQENAYLEAVMQMDKSKSRFKGAETEYNRALDNKNTGDSQKKVGFFKPKSNAQLTKLEDEARLKAENAESDMHSKIENAQNVQKQLLCIHRPNYIKQFFSLQREIESSLIANYLRYTKLCESNTLLNGLTIRPQKPTPTNCGLQHALDNINANTDFVQYVLHASIKHEDNKNPTDASKTKIIQPPSSYGTGSSAGKTNPPVNPTIKVTAAIPSPLQNTNPAPSTFPNPSVASPAFPNSSTSNPSTAPASASPLASTLKPSTANDTNGSSSSSSSNPRTSSPLASNAENKPPVAQQSPPVLLPTLPPIQTTTIQTSREVAPPPSSINSNRAASPFRPTSVSPQPSSPTKSLLFGARLDAIILREHSNIPNIVMQCTSQVENFGLNLQGIYRVPSSSARVNMLRSQFENNPLLQLHTPEDYENDVHAVADLLKIFFRELREPLIPDNHQRDFIDAGNVEDESRRRDAVHRAINDLPDANYSTIRHLTIHLAKIKENSDVNKMSTNNLAIIWGPTIIKQATIPEISSFSRTIEILIDYCFTIFDYD
notes: Rga7, F-BAR protein and Rho2 GAP of Schizosaccharomyces pombe; FL Rga7 in pET21a; also called Rga7-6His; not shown: His6, C-terminal, kept
A Kd of 10 µM was found for B1 in this work.

— paper PMC12574955, “The Ync13–Rga7–Rng10 complex selectively coordinates secretory vesicle trafficking and secondary septum formation during cytokinesis” (PLOS Biology, 2025)
